From paper PMC3253924 (DNA Repair, 2011)
Where two headings read alike, the source gives them in different places.

Assays:
[1] = target: the molecule itself; assay: crystal structure
[2] = target: the molecule itself; assay: crystal structure; remark: listed apart in the source

B1: mouse TREX1 catalytic core (residues 1-242), wild type (enzyme, UniProt Q91XB0 1-242, looked up)
chain: MGSQTLPHGHMQTLIFLDLEATGLPSSRPEVTELCLLAVHRRALENTSISQGHPPPVPRPPRVVDKLSLCIAPGKACSPGASEITGLSKAELEVQGRQRFDDNLAILLRAFLQRQPQPCCLVAHNGDRYDFPLLQTELARLSTPSPLDGTFCVDSIAALKALEQASSPSGNGSRKSYSLGSIYTRLYWQAPTDSHTAEGDVLTLLSICQWKPQALLQWVDEHARPFSTVKPMYGTPATTGTT
[1]
  binding result: binds

B2: mouse TREX1 catalytic core (residues 1-242), D18N mutant (enzyme, UniProt Q91XB0 1-242, looked up)
chain: MGSQTLPHGHMQTLIFLNLEATGLPSSRPEVTELCLLAVHRRALENTSISQGHPPPVPRPPRVVDKLSLCIAPGKACSPGASEITGLSKAELEVQGRQRFDDNLAILLRAFLQRQPQPCCLVAHNGDRYDFPLLQTELARLSTPSPLDGTFCVDSIAALKALEQASSPSGNGSRKSYSLGSIYTRLYWQAPTDSHTAEGDVLTLLSICQWKPQALLQWVDEHARPFSTVKPMYGTPATTGTT
[2]
  binding result: binds

B3: mouse TREX1 catalytic core (residues 1-242), D200H mutant (enzyme, UniProt Q91XB0 1-242, looked up)
chain: MGSQTLPHGHMQTLIFLDLEATGLPSSRPEVTELCLLAVHRRALENTSISQGHPPPVPRPPRVVDKLSLCIAPGKACSPGASEITGLSKAELEVQGRQRFDDNLAILLRAFLQRQPQPCCLVAHNGDRYDFPLLQTELARLSTPSPLDGTFCVDSIAALKALEQASSPSGNGSRKSYSLGSIYTRLYWQAPTDSHTAEGHVLTLLSICQWKPQALLQWVDEHARPFSTVKPMYGTPATTGTT
[2]
  binding result: binds

B4: mouse TREX1 catalytic core (residues 1-242), D200N mutant (enzyme, UniProt Q91XB0 1-242, looked up)
chain: MGSQTLPHGHMQTLIFLDLEATGLPSSRPEVTELCLLAVHRRALENTSISQGHPPPVPRPPRVVDKLSLCIAPGKACSPGASEITGLSKAELEVQGRQRFDDNLAILLRAFLQRQPQPCCLVAHNGDRYDFPLLQTELARLSTPSPLDGTFCVDSIAALKALEQASSPSGNGSRKSYSLGSIYTRLYWQAPTDSHTAEGNVLTLLSICQWKPQALLQWVDEHARPFSTVKPMYGTPATTGTT
[2]
  binding result: binds

B5: mouse TREX1 catalytic core (residues 1-242), V201D mutant (enzyme, UniProt Q91XB0 1-242, looked up)
chain: MGSQTLPHGHMQTLIFLDLEATGLPSSRPEVTELCLLAVHRRALENTSISQGHPPPVPRPPRVVDKLSLCIAPGKACSPGASEITGLSKAELEVQGRQRFDDNLAILLRAFLQRQPQPCCLVAHNGDRYDFPLLQTELARLSTPSPLDGTFCVDSIAALKALEQASSPSGNGSRKSYSLGSIYTRLYWQAPTDSHTAEGDDLTLLSICQWKPQALLQWVDEHARPFSTVKPMYGTPATTGTT
[2]
  binding result: binds
